According to publication PMC6468676, “The Protein Tyrosine Phosphatase H1 PTPH1 Supports Proliferation of Keratinocytes and is a Target of the Human Papillomavirus Type 8 E6 Oncogene” (Cells, 2019):

Biological target: T1, FLAG-tagged HPV8E6 (E6 oncoprotein of human papillomavirus type 8), wild type (human papillomavirus type 8, UniProt P06428 1-155)
T1 sequence: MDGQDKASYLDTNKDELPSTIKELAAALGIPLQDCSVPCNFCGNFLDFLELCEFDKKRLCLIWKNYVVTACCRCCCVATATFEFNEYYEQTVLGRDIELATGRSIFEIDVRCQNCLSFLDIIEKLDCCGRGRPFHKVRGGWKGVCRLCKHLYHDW
Assay: cell-based or functional assay

B1: Myc-tagged protein tyrosine phosphatase H1 (PTPH1), full length (enzyme, UniProt P26045 1-913, looked up)
chain: MTSRLRALGGRINNIRTSELPKEKTRSEVICSIHFLDGVVQTFKVTKQDTGQVLLDMVHNHLGVTEKEYFGLQHDDDSVDSPRWLEASKAIRKQLKGGFPCTLHFRVRFFIPDPNTLQQEQTRHLYFLQLKMDICEGRLTCPLNSAVVLASYAVQSHFGDYNSSIHHPGYLSDSHFIPDQNEDFLTKVESLHEQHSGLKQSEAESCYINIARTLDFYGVELHSGRDLHNLDLMIGIASAGVAVYRKYICTSFYPWVNILKISFKRKKFFIHQRQKQAESREHIVAFNMLNYRSCKNLWKSCVEHHTFFQAKKLLPQEKNVLSQYWTMGSRNTKKSVNNQYCKKVIGGMVWNPAMRRSLSVEHLETKSLPSRSPPITPNWRSPRLRHEIRKPRHSSADNLANEMTYITETEDVFYTYKGSLAPQDSDSEVSQNRSPHQESLSENNPAQSYLTQKSSSSVSPSSNAPGSCSPDGVDQQLLDDFHRVTKGGSTEDASQYYCDKNDNGDSYLVLIRITPDEDGKFGFNLKGGVDQKMPLVVSRINPESPADTCIPKLNEGDQIVLINGRDISEHTHDQVVMFIKASRESHSRELALVIRRRAVRSFADFKSEDELNQLFPEAIFPMCPEGGDTLEGSMAQLKKGLESGTVLIQFEQLYRKKPGLAITFAKLPQNLDKNRYKDVLPYDTTRVLLQGNEDYINASYVNMEIPAANLVNKYIATQGPLPHTCAQFWQVVWDQKLSLIVMLTTLTERGRTKCHQYWPDPPDVMNHGGFHIQCQSEDCTIAYVSREMLVTNTQTGEEHTVTHLQYVAWPDHGVPDDSSDFLEFVNYVRSLRVDSEPVLVHCSAGIGRTGVLVTMETAMCLTERNLPIYPLDIVRKMRDQRAMMVQTSSQYKFVCEAILRVYEEGLVQMLDPS
B1 was tested. Which “Myc-PTPH1 phosphatase activity (Malachite Green PTP assay on precipitated Myc-PTPH1, two phospho-tyrosine peptides) upon co-expression of HPV8E6 compared to the empty FLAG control vector” value did it give?
The value was 2.5 fold.
